{"source": "patent US20220389077A1", "about": "“ALLOGENEIC CELL COMPOSITIONS AND METHODS OF USE” (Poseida Therapeutics, Inc., priority 2018, published 2022)", "molecules": {"B1": {"name": "CD2z CSR: chimeric stimulatory receptor: CD2 signal peptide, extracellular, transmembrane and cytoplasmic domains with CD3z intracellular domain (SEQ ID NO: 17062) (protein)", "chain": "MSFPCKFVASFLLIFNVSSKGAVSKEITNALETWGALGQDINLDIPSFQMSDDIDDIKWEKTSDKKKIAQFRKEKETFKEKDTYKLFKNGTLKIKHLKTDDQDIYKVSIYDTKGKNVLEKIFDLKIQERVSKPKISWTCINTTLTCEVMNGTDPELNLYQDGKHLKLSQRVITHKWTTSLSAKFKCTAGNKVSKESSVEPVSCPEKGLDIYLIIGICGGGSLLMVFVALLVFYITKRKKQRSRRNDEELETRAHRVATEERGRKPHQIPASTPQNPATSQHPPPPPGHRSQAPSHRPPPPGHRVQHQPQKRPPAPSGTQVHQQKGPPLPRPRVQPKPPHGAAENSLSPSSNRVKFSRSADAPAYKQGQNQLYNELNLGRREEYDVLDKRRGRDPEMGGKPRRKNPQEGLYNELQKDKMAEAYSEIGMKGERRRGKGHDGLYQGLSTATKDTYDALHMQALPPR"}}, "key": {"[1]": {"molecular_target": "T1, human CD58 (Homo sapiens, UniProt P19256)", "T1 construct": "expressed in transfected cells; host or cells: K562 (electroporated) or Rat2 (lipofected) cells", "T1 sequence (P19256 29-250)": "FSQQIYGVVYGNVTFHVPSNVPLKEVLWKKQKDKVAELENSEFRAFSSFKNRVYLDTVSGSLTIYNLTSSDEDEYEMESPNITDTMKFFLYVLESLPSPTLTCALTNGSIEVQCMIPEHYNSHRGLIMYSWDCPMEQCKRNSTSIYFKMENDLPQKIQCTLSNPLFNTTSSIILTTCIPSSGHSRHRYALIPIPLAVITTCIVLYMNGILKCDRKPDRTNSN", "experiment": "T cell degranulation (CD107a) against CD58-positive cell targets", "assay_type": "cell-based", "conditions": "4-6 hours coculture; K562 or Rat2 cells with mRNA encoding human CD58", "description": "FIG. 23B is a series of bar graphs showing CSR CD2z mutant degranulation data. The panel of CSR CD2z mutants was tested for the capability of mediating degranulation against CD58-positive cell targets. T cell degranulation is a surrogate of T cell killing that can be measured by FACS staining for intracellular CD107a expression following coculture with target cell lines expressing target antigen. Specifically, pan T cells from normal blood donors were stimulated with anti-CD3/anti-CD28 beads in standard T cell culture media, then rested. These cells were then electroporated (BTX ECM 830 electroporator @ 500V for 700 μs) with 9 μg of mRNA expressing CSR CD2z mutants and cultured overnight. The next day, the cells were cocultured for 4-6 hours in the presence of various target cell lines. Positive target cell lines included K562 cells or Rat2 cells that were electroporated or lipofected, respectively, with mRNA encoding human CD58, while negative controls were either Rat2 cells that were not electroporated or CSR CD2z mutant expressing T cells alone.\nFIG. 23C is a summary of staining and degranulation data. Data from surface-expression and binding studies, as well as those from degranulation experiments for each CSR CD2z mutant is summarized in the table.\n(§1) FIG. 23D is a series of flow cytometry plots showing the expression of CD48, CD58 or CD59 on K562 and Rat2 cells. To confirm possible ligands for the CSR WT CD2z molecule, a panel of known and suspected ligands including human CD48, CD58, and CD59 were tested. Degranulation of engineered T cells was evaluated against the cell lines K562 and Rat2 that were made to overexpress the target ligands and confirmed for expression by FACS staining. Red histograms are unstained cells and blue histograms are cells that were electroporated/lipofected with mRNA and then stained for expression of the respective marker by FACS.\nFIG. 23E is a bar graph showing that CSR CD2z recognizes human CD58, but not CD48 or CD59. To confirm possible ligands for the CSR WT CD2z molecule, a panel of known and suspected ligands including human CD48, CD58, and CD59 were tested. Degranulation of engineered T cells was evaluated against the cell lines K562 and Rat2 that were made to overexpress the target ligands and confirmed for expression by FACS staining. Cells were electroporated/lipofected with mRNA and then stained for expression of the respective marker by FACS. As a control, a BCMA CAR was included as well as a K562 cell line overexpressing BCMA. In addition, T cells transfected with GFP were also included as a control. T cell degranulation is a surrogate of T cell killing that can be measured by FACS staining for intracellular CD107a expression following coculture with target cell lines expressing target antigen. Pan T cells from normal blood donors were stimulated with anti-CD3/anti-CD28 beads in standard T cell culture media, then rested. These T cells were then electroporated with mRNA expressing CSR WT CD2z, BCMA CAR, or GFP and cultured overnight. The next day, the cells were cocultured for 4-6 hours in the presence of the various target cell lines that were electroporate/lipofected with mRNA encoding human CD48, CD58 or CD59, while negative controls were either K562 or Rat2 cells that were not electroporated/lipofected, or each of the electroporated T cells alone."}, "[2]": {"molecular_target": "T2, human CD48 (Homo sapiens, UniProt P09326)", "T2 construct": "expressed in transfected cells; host or cells: K562 or Rat2 cells, electroporated/lipofected with mRNA", "T2 sequence (P09326 27-220)": "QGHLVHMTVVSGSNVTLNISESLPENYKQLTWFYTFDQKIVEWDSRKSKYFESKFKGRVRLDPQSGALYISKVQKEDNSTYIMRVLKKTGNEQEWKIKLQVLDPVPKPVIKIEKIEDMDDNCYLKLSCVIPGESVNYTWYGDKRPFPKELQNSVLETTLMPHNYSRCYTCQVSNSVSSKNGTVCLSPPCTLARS", "experiment": "T cell degranulation (CD107a) against cells overexpressing CD48", "assay_type": "cell-based", "conditions": "4-6 hours coculture; K562 or Rat2 cells", "description": "as §1\nFIG. 23E is a bar graph showing that CSR CD2z recognizes human CD58, but not CD48 or CD59. To confirm possible ligands for the CSR WT CD2z molecule, a panel of known and suspected ligands including human CD48, CD58, and CD59 were tested. Degranulation of engineered T cells was evaluated against the cell lines K562 and Rat2 that were made to overexpress the target ligands and confirmed for expression by FACS staining. Cells were electroporated/lipofected with mRNA and then stained for expression of the respective marker by FACS. […] T cell degranulation is a surrogate of T cell killing that can be measured by FACS staining for intracellular CD107a expression following coculture with target cell lines expressing target antigen. […]"}}, "data": [{"molecule": "B1", "values": [{"measurement": "degranulation (CD107a) against CD58", "setting": "[1]", "result": "capable of degranulating at levels above background"}, {"measurement": "degranulation (CD107a) against CD48", "setting": "[2]", "result": "not against human CD48 or CD59"}]}]}
